This note sets out measurements from patent CN114591431A (MEISWEI SHANGHAI BIOTECHNOLOGY CO LTD, dated 2022).

The EC50 is the concentration giving half of the maximal effect.

Assay [1] addresses T1, 重组人GAS6 his 蛋白(Novoprotein，Cat#C01W) (human, UniProt Q14393 31-678, limits assumed).
T1 construct: Bought protein; not shown: His tag
T1 sequence (looked up): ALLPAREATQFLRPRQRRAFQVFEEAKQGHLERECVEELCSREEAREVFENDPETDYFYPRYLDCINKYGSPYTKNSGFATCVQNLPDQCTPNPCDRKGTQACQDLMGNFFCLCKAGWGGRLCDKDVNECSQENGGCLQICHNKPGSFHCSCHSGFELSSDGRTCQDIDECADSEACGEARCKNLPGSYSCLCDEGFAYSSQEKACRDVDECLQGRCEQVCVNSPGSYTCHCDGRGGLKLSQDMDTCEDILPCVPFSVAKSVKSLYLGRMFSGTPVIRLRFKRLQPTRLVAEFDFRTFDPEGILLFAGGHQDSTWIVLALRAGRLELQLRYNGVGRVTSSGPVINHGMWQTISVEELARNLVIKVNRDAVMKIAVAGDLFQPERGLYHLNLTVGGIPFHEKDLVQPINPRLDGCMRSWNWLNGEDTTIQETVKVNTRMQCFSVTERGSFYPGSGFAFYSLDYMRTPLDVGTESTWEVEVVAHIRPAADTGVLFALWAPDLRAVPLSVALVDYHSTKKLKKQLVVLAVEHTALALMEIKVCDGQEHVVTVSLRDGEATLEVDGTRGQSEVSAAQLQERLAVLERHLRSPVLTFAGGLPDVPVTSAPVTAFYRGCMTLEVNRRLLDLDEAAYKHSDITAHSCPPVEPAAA
The assay is described as follows: ELISA, coated human GAS6 his 0.5 ug/ml. Background: In an ELISA, binding on a coated surface is turned into a signal by an enzyme label.

The assay “鼠GAS6 his蛋白(Sino …)” deals with T2, 鼠GAS6 his蛋白(Sino Biological，Cat#58026-M08H) (mouse, UniProt Q61592 28-674).
T2 construct: Bought protein; also called 小鼠 GAS6; not shown: His tag
T2 sequence (looked up): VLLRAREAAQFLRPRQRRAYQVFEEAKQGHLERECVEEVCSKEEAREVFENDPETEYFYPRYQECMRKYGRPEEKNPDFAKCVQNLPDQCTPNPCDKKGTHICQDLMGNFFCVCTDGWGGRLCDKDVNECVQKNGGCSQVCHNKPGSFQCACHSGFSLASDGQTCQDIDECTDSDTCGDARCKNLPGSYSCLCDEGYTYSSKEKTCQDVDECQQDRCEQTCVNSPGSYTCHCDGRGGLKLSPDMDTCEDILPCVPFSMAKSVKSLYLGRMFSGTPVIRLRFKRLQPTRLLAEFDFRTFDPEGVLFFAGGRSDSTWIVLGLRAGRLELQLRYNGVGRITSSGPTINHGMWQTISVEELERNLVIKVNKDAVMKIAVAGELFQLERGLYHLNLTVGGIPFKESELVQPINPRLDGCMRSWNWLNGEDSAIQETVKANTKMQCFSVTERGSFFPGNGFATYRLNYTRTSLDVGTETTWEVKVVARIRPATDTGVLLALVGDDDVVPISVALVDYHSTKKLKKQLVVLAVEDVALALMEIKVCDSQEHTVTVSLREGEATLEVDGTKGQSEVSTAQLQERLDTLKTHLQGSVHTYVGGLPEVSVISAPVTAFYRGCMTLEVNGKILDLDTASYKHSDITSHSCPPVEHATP
The experiment in a line: ELISA, coated mouse GAS6 his 0.5 ug/ml.

In assay [2] the target is T3, 重组人Protein S his 蛋白(R&D，Cat# 9489-PS) (human, UniProt P07225 42-676, limits assumed).
T3 construct: Bought protein; not shown: His tag
T3 sequence (looked up): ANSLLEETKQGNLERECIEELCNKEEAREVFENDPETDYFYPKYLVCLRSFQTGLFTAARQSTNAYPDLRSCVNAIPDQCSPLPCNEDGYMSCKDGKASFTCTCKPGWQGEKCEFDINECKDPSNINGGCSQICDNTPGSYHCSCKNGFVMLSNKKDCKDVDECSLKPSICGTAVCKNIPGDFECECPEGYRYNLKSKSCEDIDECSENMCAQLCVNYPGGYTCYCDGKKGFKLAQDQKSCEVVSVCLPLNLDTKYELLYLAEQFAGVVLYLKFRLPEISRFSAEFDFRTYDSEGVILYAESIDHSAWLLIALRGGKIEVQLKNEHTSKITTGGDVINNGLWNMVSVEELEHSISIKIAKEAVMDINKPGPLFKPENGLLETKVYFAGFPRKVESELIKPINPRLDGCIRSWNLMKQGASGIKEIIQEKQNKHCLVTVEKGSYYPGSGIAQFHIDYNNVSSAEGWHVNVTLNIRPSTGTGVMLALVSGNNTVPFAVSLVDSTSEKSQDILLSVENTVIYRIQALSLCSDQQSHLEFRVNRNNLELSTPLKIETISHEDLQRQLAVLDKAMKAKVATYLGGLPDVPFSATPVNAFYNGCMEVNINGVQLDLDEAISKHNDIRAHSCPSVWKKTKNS
The experiment in a line: ELISA, coated human Protein S his 1 ug/ml.

B1: ch2O18G6 (antibody, human IgG1, kappa, V domains shown)
VH: QVQLQQSGPELVKPGASVKISCKTSGNTFTEYIMHWVKQSHGKSLEWIGGINPKNGGTSYNQKFKGKATLTVDKSSRTAYMELRSLTSEDSAVYYCARVRIPPYVYYAMDYWGQGTTVTVSS
VL: DVVVTQTPLSLPVSLGDQASISCRSSQSIVHSNGNTYLEWYLQKPGQSPKLLIYKVSNRFSGVPDRFSGSGSGTDFTLKISRVEAEDLGVYYCFQGSHVPYTFGGGTKLEIKR
notes: Human-mouse chimeric antibody, hIgG1 (G1m3) / human kappa (Km3), made in HEK293; also called ch2O18G6-IgG
As to B1, the EC50 came to 0.21 nM in assay [1], 0.22 nM with 鼠GAS6 his蛋白(Sino …) and 0.025 nM in assay [2].

B2: ch15G5E5 (antibody, human IgG1, kappa, V domains shown)
VH: EVQLQQSGPELVKPGASVKMSCKASGYTFTDDYMKWVKQSHGKSLEWIGDINPNNGGTIYNQKFKGKAILTVDKSSSTAYMQLNSLTSEDSAVYYCARRGRGSWGQGTTVTVSS
VL: DVLMTQTPLSLPVSLGDQASISCRSSQSIVYSNGNTYLEWYLQKPGQSPKLLIYRVSNRFSGVPDRFSGSGSGTDFTLKISRVEAEDLGIYYCFQGSHVPLTFGAGTKLELKR
notes: Human-mouse chimeric antibody, hIgG1 (G1m3) / human kappa (Km3), made in HEK293; also called ch15G5E5-IgG
Turning to B2, the EC50 in assay [1] turned out to be 0.16 nM; with 鼠GAS6 his蛋白(Sino …), 4.94 nM; in assay [2], 0.2 nM.

B3: ch2D3C6 (antibody, human IgG1, kappa, V domains shown)
VH: DIQLQESGPGLVKPSQSLSLTCSVTGYSITNGYYWNWIRQFPGNKLEWMGYISYDGTNNYNPSLKNRISITRDTSKNQFFLKLNSVTTEDTATYYCARRALWYYAMDYWGQGTSVTVSS
VL: DIVMTQSPASLAVSLGQRATISCKASQSVDYDGESYMNWYQQKPGQPPKLLIYVASNLESGIPARFSGSGSGTDFTLNIHPVEEEDAATYYCQQSDEDPYTFGGGTKLEIKR
notes: Human-mouse chimeric antibody, mouse VH/VL cloned into pTT5_hIgG1.G1m3 / pTT5_hKappa.Km3, made in HEK293; also called ch2D3C6-IgG
For the molecule B3, the results for the EC50 (in assay [1]; in the assay with 鼠GAS6 his蛋白(Sino …)) were 0.19 nM and 1.42 nM, respectively.

B4: ch18I16C6 (antibody, human IgG1, kappa, V domains shown)
VH: EVKIEESGGGLVKPGGSLKLSCAASGFTFSSYAMSWFRQTPEKRLEWVASISSGGNSYYPDSVKGRFTISRDNARNILYLQMSSLRSEDTAMYYCSRTPDYWGQGTTVTVSS
VL: DVVMTQSPSSMCASLGERVTITCKASQDINTYLSWFQQKPGKSPKTLIYRANRLVDGVPSRFSGSGSGQDYSLTISSLEYEDMGIYYCLQYDEFPFTFGSGTKLEIKR
notes: Human-mouse chimeric antibody, hIgG1 (G1m3) / human kappa (Km3), made in HEK293; also called ch18I16C6-IgG
For B4, the half-maximal effective concentration (EC50) is 0.11 nM in assay [1], 0.1 nM in the assay with 鼠GAS6 his蛋白(Sino …) and 0.008 nM in assay [2].

B5: ch11B11D12 (antibody, human IgG1, kappa, V domains shown)
VH: QVQLQQSGAELAKPGASVKMSCKASGYTFTRYWIHWVKQRPGQGLEWIGYIIPSTGYTEYSQRFKDKATLTADKSSNTAYMQLSSLTSEDSAVYYCTRYYRYAKYVMDYWGQGTTVTVSS
VL: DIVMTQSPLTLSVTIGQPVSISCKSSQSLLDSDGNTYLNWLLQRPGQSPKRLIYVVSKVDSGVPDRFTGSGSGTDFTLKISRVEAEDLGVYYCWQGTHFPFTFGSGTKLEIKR
notes: Human-mouse chimeric antibody, hIgG1 (G1m3) / human kappa (Km3), made in HEK293; also called ch11B11D12-IgG
For the molecule B5, the concentration for a half-maximal effect (EC50) in assay [1] came out at 0.18 nM; in the assay with 鼠GAS6 his蛋白(Sino …) it was 0.15 nM.
